Laboratory results published in patent publication EP4660205A1 (Beijing Wisdomab Biotechnology Co., Ltd, dated 2025).
Like-named read-outs stand apart in the source and are kept apart here.

How the values were obtained:
[1] = biological target: T1, hIL-1R3-His (extracellular domain of human IL-1R3 with C-terminal His tag) (human (homo sapiens), UniProt Q9NPH3 21-359); assay: SPR (Biacore T200), antibody captured by anti-human Fc, hIL-1R3-His as analyte, 1:1 model
T1 sequence: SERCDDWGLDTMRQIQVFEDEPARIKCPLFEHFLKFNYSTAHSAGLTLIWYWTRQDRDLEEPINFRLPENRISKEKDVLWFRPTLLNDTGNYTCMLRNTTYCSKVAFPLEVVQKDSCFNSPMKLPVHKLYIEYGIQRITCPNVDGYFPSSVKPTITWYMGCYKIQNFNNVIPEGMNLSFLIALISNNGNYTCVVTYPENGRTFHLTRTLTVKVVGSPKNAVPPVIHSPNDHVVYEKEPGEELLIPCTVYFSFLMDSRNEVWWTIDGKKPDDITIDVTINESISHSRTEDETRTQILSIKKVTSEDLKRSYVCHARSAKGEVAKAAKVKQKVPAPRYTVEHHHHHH

[2] = biological target: T1, hIL-1R3-His (extracellular domain of …); assay: as above; remark: listed apart in the source
[3] = biological target: T2, human IL-36R on the cell surface (HEK-Blue IL-36 cells, HaCAT cells, human CD14+ monocytes) (human, UniProt Q9HB29 20-575); assay: cell-based or functional assay
T2 sequence (looked up): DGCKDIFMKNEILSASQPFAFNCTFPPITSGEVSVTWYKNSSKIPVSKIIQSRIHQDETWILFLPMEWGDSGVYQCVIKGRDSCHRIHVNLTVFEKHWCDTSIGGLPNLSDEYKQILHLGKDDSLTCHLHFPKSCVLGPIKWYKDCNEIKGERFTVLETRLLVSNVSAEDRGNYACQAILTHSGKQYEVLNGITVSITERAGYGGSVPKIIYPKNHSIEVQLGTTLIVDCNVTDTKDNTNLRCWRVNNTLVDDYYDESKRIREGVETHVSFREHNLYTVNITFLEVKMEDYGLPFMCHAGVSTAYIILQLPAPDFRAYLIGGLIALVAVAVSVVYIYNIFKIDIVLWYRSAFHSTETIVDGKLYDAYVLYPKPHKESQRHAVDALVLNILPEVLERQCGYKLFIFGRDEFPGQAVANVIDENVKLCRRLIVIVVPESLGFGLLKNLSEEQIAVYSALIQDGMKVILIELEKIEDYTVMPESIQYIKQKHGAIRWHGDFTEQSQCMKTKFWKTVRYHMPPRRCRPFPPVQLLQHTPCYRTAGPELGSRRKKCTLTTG

[4] = biological target: T2, human IL-36R on the cell surface …; assay: cell-based or functional assay; remark: listed apart in the source
[5] = biological target: T2, human IL-36R on the cell surface …; assay: cell-based or functional assay; remark: listed apart in the source
[6] = biological target: T3, hIL-36R-His (extracellular domain of human IL-36R with C-terminal His tag) (human (homo sapiens), UniProt Q9HB29 20-335); assay: SPR (Biacore T200), antibody captured by anti-human Fc, hIL-36R-His as analyte, 1:1 model
T3 construct: also called human hIL-36R-His
T3 sequence: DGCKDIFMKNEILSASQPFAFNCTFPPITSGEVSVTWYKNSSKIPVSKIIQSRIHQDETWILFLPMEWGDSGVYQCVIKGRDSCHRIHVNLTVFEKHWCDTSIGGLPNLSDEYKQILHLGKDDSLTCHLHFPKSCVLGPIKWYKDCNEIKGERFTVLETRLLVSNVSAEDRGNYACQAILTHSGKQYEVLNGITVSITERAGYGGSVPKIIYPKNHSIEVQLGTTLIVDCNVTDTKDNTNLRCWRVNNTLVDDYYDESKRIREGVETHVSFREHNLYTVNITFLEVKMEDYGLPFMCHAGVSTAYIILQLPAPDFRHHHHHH

[7] = biological target: T1, hIL-1R3-His (extracellular domain of …); assay: SPR (Biacore T200), antibody captured by anti-human Fc, hIL-1R3-His as analyte, 1:1 model; remark: listed apart in the source

Binder | Kd [1] | koff [1] | kon [1] | Kd [2] | koff [2] | kon [2] | fold increase of activity by IC50 against Spesolimab, IL-36α, HaCAT hIL-8 secretion [3] | fold increase of activity by IC50 against Spesolimab, IL-36β, HaCAT hIL-8 secretion [3] | fold increase of activity by IC50 against Spesolimab, IL-36γ, HaCAT hIL-8 secretion [3] | fold increase of activity by IC50 against Spesolimab, IL-36γ, hIL-8 secretion by human monocytes [3] | IC50 for inhibiting IL-36α from inducing hIL-8 secretion by HaCAT cells [4] | IC50 for inhibiting IL-36β from inducing hIL-8 secretion by HaCAT cells [4] | IC50 for inhibiting IL-36γ from inducing hIL-8 secretion by HaCAT cells [4] | IC50 for inhibiting IL-36γ-induced hIL-8 secretion by human monocytes [5] | Kd [6] | koff [6] | kon [6] | Kd [7] | koff [7] | kon [7]
R1B9 (mouse anti-human IL-1R3 monoclonal antibody) (antibody, V domains shown, Found as a mouse scFv on phage; it was captured by anti-human IgG (Fc) in SPR and detected with anti-human IgG-FITC, which points to a human Fc; also called mouse IL-1R3 monoclonal antibody R1B9; parent R1B9) VH: EVKLVESGGGLVKPGGSLKLSCAASGFTFSSYAMSWVRQSPEKRLEWVAEISRGGSHTYYPDTVTGRFTISRDNAKNTLYLEMTSLRSEDTALYYCARSYGNYPFDYWGQGTTLTVSS VL: DIVMTQSPAIMSASPGEKVTMTCSASSSVSYMYWYQQKPGSSPRLLIYDTSNLASGVPVRFSGSGSGTSYSLTISRMEAEDAATYYCQQWSSYPLTFGAGTKLEIK | 1.07 nM | 0.00011 s⁻¹ | 103000 M⁻¹ s⁻¹ | 1.24 nM | 9.32e-05 s⁻¹ | 75000 M⁻¹ s⁻¹ | – | – | – | – | – | – | – | – | – | – | – | – | – | –
Common light chain bispecific antibody (R72B7VH/R1B9VH-h1+L36E9VK) (bispecific antibody, human IgG1, kappa, also called IL-36R×IL-1R3 common light chain bispecific antibody; R72B7/R1B9VH-h1+L36E9VK) heavy 1: QVQLVQSGAEVKKPGASVKVSCKASGYSFTSSWIHWVKQAPGQGLEWMGEINPGNVRSNYNENFRNKVTMTVDTSISTAYMELSRLRSDDTAVYYCTVINYGEPYFASWGQGTLVTVSSASTKGPSVFPLAPSSKSTSEGTAALGCLVKDYFPEPVTVSWNSGALTSGVHTFPAVLQSSGLYSLSSVVTVPSSSLGTQTYICNVDHKPSNTKVDKTVEPKSCDKTHTCPPCPAPEFEGGPSVFLFPPKPKDTLMISRTPEVTCVVVDVSQEDPEVQFNWYVDGVEVHNAKTKPREEQYNSTYRVVSVLTVLHQDWLNGKEYKCKVSNKALPASIEKTISKAKGQPREPQVCTLPPSQEEMTKNQVSLSCAVKGFYPSDIAVEWESNGQPENNYKTTPPVLDSDGSFFLVSKLTVDKSRWQEGNVFSCSVMHEALHNHYTQKSLSLSPGK heavy 2: EVQLVESGGGLVQPGGSLRLSCAASGFTFSSYAMSWVRQAPGKGLVWVAEISRGGSHTYYPDTVTGRFTISRDNAKNTLYLQMNSLRAEDTAVYYCARSYGNYPFDYWGQGTTVTVSSASTKGPSVFPLAPSSKSTSGGTAALGCLVKDYFPEPVTVSWNSGALTSGVHTFPAVLQSSGLYSLSSVVTVPSSSLGTQTYICNVNHKPSNTKVDKRVEPKSCDKTHTCPPCPAPEFEGGPSVFLFPPKPKDTLMISRTPEVTCVVVDVSHEDPEVKFNWYVDGVEVHNAKTKPREEQYNSTYRVVSVLTVLHQDWLNGKEYKCKVSNKALPASIEKTISKAKGQPREPQVYTLPPCREEMTKNQVSLWCLVKGFYPSDIAVEWESNGQPENNYKTTPPVLDSDGSFFLYSKLTVDKSRWQQGNVFSCSVMHEALHNHYTQKSLSLSPGK light: EIVLTQSPGTLSLSPGERATLSCRASQSVIGSYLAWYQQKPGQAPRLLIYSASKLASGIPDRFSGSGSGTDFTLTISRLEPEDFAVYYCQQDTRYPITFGQGTKVEIKRTVAAPSVFIFPPSDEQLKSGTASVVCLLNNFYPREAKVQWKVDNALQSGNSQESVTEQDSKDSTYSLSSTLTLSKADYEKHKVYACEVTHQGLSSPVTKSFNRGEC | – | – | – | – | – | – | ~12 fold | ~4 fold | ~15 fold | ~17 fold | 0.00797 nM | 0.027 nM | 0.0453 nM | 0.00171 nM | 1.29 nM | 3.98e-05 s⁻¹ | 30700 M⁻¹ s⁻¹ | 1.44 nM | 5.53e-05 s⁻¹ | 38400 M⁻¹ s⁻¹
